# Source: patent US20100291189A1 (RIKEN, published 2010)
# Biological target: the molecule itself
# Test: SDS-PAGE/CBB staining of sucrose gradient liposome fractions; self-association (homo-tetramer)
protein,measurement,value
"E. coli-derived water channel (AQPZ), full-length, with N-terminal native His tag and TEV protease recognition site, cell-free synthesized (other, No cleavage of the tag by TEV is reported before the gels; Purified in DDM for Blue-Native PAGE, and in a phosphatidylcholine liposome fraction for SDS-PAGE; also called cell-free synthesized AQPZ) MKDHLIHNVHKEEHAHAHNKDYDIPTTENLYFQGSSGSSGMFRKLAAECFGTFWLVFGGCGSAVLAAGFPELGIGFAGVALAFGLTVLTMAFAVGHISGGHFNPAVTIGLWAGGRFPAKEVVGYVIAQVVGGIVAAALLYLIASGKTGFDAAASGFASNGYGEHSPGGYSMLSALVVELVLSAGFLLVIHGATDKFAPAGFAPIAIGLALTLIHLISIPVTNTSVNPARSTAVAIFQGGWALEQLWFFWVVPIVGGIIGGLIYRTLLEKRD",binding result,binds
